Where no end group is shown, it is not given here.
Target: HRP-conjugated protein-A (UniProt P38507 37-477, HRP conjugate)
Test: ELISA: HRP-protein A added to immobilized biotinylated CRF in the absence of CRFBP-Fc
Source text: Biotinylated CRF was immobilized on an avidin-coated ELISA plate. […] OD=optical density.

B1: Biotinylated CRF (corticotropin-releasing factor) (peptide, UniProt P06850 154-194, looked up)
peptide: SEEPPISLDLTFHLLREVLEMARAEQLAQQAHSNRKLMEII
modifications: ends and bridges not checked; also: biotinylated, site not given here
notes: Immobilized on an avidin-coated ELISA plate; also called corticotropin-releasing hormone; CRH
B1: no binding.
